In data set [1] the target is T1, furin (Homo sapiens, UniProt P09958).
T1 construct: purchased NEB
The conditions noted are these: Jean et al. 1998; cited from earlier work.

The target in another data set is T2, matriptase (Homo sapiens, UniProt Q9Y5Y6).
T2 construct: purchased R&D Systems
T2 sequence (Q9Y5Y6 1-855): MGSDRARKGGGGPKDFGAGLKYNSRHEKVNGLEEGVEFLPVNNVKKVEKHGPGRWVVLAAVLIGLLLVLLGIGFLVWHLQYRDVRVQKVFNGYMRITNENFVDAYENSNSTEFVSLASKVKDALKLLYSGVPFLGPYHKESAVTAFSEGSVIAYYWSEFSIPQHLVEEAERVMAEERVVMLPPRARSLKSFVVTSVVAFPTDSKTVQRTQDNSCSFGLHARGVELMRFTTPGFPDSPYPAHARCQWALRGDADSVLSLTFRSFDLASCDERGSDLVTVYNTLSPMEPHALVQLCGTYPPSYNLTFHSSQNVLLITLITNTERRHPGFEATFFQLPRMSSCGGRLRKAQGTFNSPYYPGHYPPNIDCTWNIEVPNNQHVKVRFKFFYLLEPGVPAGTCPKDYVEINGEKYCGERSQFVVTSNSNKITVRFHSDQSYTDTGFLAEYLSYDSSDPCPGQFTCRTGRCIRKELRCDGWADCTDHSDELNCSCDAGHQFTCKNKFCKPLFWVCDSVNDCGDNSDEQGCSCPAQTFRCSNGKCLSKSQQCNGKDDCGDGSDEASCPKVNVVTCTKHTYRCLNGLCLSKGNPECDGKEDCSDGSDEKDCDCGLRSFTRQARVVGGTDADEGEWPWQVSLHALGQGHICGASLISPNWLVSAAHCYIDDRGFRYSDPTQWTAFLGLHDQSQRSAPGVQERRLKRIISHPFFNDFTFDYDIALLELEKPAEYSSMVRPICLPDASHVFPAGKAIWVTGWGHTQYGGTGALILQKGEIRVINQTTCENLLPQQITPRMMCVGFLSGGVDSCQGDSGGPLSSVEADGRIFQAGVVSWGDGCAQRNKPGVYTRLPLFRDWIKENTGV
Type of data set: biochemical. Particulars: 45 min.

The target in the next data set is T3, cathepsin L (Homo sapiens, UniProt P07711).
T3 construct: purchased R&D Systems
Type of data set: biochemical. The conditions noted are these: 45 min.

The target of another data set is T4, cathepsin B (Homo sapiens, UniProt P07858).
T4 construct: purchased R&D Systems
Type of data set: biochemical. The conditions noted are these: 45 min.

The test system of another data set is trypsin. It counts as biochemical. Particulars: 45 min.
Data set [2] deals with T5, elastase (ELA1) from pig pancreas (Sus scrofa, UniProt P00772).
T5 construct: elastase (ELA1) from pig pancreas 0.25U/mL; purchased molecular probes (Sigma-Aldrich) E-12056; host or cells: pig pancreas
Type of data set: biochemical.

Another data set deals with T6, TMPRSS2 (Homo sapiens, UniProt O15393).
T6 construct: purchased creative biomart
It counts as biochemical. The conditions noted are these: 45 min.

The test system of data set [3] is IFNγ-mediated activation of human microglial HMC3-MHCII^Luc cells. Nature of the data set: IFNγ-mediated microglial activation, MHCII-driven luciferase. It counts as cell-based. Particulars: MHCII-driven luciferase normalized to cell viability, FIG. 19.
Data set [4] relates to ACE2/SARS-CoV-2 spike mediated cell fusion of HeLa cells. It counts as cell-based, human. Particulars: 24 h.
Data set [5] concerns the target T1, furin. Type of data set: biochemical. The conditions noted are these: 45 min.
The target of a further data set is T7, PC1 (Homo sapiens, UniProt P29120).
T7 construct: purchased R&D Systems
T7 sequence (P29120 111-753): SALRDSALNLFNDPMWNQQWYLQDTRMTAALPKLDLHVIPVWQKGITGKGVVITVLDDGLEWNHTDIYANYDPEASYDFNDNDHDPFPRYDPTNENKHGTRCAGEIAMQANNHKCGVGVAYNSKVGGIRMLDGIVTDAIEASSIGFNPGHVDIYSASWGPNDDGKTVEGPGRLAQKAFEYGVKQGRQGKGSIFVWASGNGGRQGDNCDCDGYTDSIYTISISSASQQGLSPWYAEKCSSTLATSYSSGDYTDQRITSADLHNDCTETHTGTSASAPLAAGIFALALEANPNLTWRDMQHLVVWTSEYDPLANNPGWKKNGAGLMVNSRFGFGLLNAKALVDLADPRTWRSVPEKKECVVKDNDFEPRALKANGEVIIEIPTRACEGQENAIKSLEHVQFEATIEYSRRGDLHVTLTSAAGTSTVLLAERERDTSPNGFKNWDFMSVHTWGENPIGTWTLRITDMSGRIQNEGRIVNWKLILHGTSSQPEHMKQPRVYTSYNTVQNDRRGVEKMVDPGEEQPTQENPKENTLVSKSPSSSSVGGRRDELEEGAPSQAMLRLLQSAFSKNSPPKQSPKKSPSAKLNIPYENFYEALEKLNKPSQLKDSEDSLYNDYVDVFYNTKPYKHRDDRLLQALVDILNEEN
It counts as biochemical. The conditions noted are these: 45 min.

Data set [6] concerns MERS-CoV pseudovirus entry in Caco2 human colorectal adenocarcinoma cells. Type of data set: cell-based.
Data set [7] has as its system SARS-CoV-2 spike pseudotyped lentivirus entry in HeLa cells expressing ACE2 only. Type of data set: cell-based. The conditions noted are these: 10 µM.

T1 sequence (P09958 108-794): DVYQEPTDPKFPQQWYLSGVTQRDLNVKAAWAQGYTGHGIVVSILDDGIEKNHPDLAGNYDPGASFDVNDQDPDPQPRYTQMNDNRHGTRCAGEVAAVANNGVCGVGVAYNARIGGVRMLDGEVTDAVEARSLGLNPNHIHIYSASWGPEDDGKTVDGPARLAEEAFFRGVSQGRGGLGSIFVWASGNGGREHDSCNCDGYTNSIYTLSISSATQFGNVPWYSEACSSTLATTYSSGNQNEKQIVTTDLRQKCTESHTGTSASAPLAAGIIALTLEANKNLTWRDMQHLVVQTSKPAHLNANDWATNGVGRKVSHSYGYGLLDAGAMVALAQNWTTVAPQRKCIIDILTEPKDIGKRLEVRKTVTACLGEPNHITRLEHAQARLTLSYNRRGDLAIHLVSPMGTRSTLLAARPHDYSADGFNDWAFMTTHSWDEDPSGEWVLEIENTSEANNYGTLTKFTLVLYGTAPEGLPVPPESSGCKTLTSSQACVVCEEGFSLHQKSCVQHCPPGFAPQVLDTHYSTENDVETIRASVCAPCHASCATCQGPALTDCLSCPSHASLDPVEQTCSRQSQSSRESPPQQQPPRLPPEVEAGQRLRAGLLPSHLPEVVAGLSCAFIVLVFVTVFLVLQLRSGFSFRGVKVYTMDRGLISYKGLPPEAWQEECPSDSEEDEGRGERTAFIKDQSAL
T6 sequence (O15393 whole entry): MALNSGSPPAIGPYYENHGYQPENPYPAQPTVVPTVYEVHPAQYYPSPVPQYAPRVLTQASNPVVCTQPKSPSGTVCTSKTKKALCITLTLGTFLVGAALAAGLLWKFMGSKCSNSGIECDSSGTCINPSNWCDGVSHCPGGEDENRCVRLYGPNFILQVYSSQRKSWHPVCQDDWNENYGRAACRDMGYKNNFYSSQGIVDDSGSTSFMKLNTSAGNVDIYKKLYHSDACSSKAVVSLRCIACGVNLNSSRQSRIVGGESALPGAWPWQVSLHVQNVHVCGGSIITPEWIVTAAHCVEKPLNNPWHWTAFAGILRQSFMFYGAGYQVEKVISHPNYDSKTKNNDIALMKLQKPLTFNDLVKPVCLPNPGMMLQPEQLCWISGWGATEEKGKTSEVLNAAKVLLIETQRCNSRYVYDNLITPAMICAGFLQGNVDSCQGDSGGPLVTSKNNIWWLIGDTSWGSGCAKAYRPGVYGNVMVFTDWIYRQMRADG
T3 sequence (P07711 114-333): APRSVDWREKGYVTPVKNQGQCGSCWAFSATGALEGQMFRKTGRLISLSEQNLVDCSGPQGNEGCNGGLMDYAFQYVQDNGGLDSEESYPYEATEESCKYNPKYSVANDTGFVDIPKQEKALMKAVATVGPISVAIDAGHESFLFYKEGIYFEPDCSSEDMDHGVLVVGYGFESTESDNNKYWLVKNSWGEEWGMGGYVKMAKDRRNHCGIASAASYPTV
T5 sequence (P00772 27-266): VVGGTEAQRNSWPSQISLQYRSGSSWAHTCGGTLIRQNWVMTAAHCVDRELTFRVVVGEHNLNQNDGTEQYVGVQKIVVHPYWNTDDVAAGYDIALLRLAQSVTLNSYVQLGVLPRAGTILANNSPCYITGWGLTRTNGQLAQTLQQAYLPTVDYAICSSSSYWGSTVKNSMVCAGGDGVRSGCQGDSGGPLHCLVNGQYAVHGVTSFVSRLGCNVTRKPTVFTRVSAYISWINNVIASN

Take Alpha1-antitrypsin Portland: the activity on furin result in the data set with furin [1] was “strong and selective activity”.

As to rhAAT, in the data set with matriptase, the matriptase protease activity entry is listed as “inhibits matriptase protease activity”. In the data set with cathepsin L, the “cathepsin L protease activity” value is listed as “inhibits cathepsin L protease activity”. In the data set with cathepsin B, the “cathepsin B protease activity” value is recorded as “inhibits cathepsin B protease activity”. The trypsin protease activity result with trypsin was “inhibits trypsin protease activity”. Moreover, the elastase protease activity result in data set [2] is “inhibits elastase protease activity”. Moreover, the TMPRSS2 protease activity result with TMPRSS2 is reported as “inhibits TMPRSS2 protease activity”. Further, the “IFNγ-mediated microglial activation (inflammation)” value in data set [3] was “reduces inflammation”; in [3] (listed as recombinant AAT), “Effect is observed”. In data set [4], the “inhibitory effect on SARS-CoV-2 spike mediated cell fusion” value is given as “more effectively than plasma derived AAT”. For the same substance, the furin protease activity result in the data set with furin [5] is “inhibits furin protease activity”. Besides, in the data set with PC1, the PC1 protease activity entry is given as “inhibits PC1 protease activity”. Further, the MERS-CoV pseudovirus entry entry in [6] is listed as “inhibits viral entry of several viruses”.

With plasma derived AAT, the “inhibitory effect on SARS-CoV-2 pseudoviral cell-entry” value in data set [7] is “up to 25%”. Also, the “IFNγ-mediated microglial activation (inflammation)” value in data set [3] is on record as “Effect is observed”.

Values taken from patent US20230302104A1, “TREATMENT AND/OR PREVENTION OF A DISEASE OR A SYNDROME RELATED TO A VIRUS INFECTION” (priority 2020, published 2023).
